Results from the supplement of paper PMC9112550, “Optimization of the antimicrobial peptide Bac7 by deep mutational scanning” (BMC Biology, 2022).

Test system: Escherichia coli TOP10
Test: shrunken log2 fold change of peptide-encoding DNA abundance (4.5 h post-induction vs induction); higher = less antimicrobial activity (less host growth inhibition)
Settings: time post-induction: 4.5 h; library: site-saturation at positions 5, 18, 19, 20
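Further: peptides expressed intracellularly from a pBAD plasmid library in pooled LB shake-flask culture, induced with 0.3% L-arabinose, DNA abundance read by NGS, three biological replicates, DESeq2 with apeglm shrinkage.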

Sequence	shrunken log2 fold change
RRIRIRPPRLPRPRPRPVTPPRP	-0.0315
RRIRLRPPRLPRPRPRPKKDPRP	0.0575
RRIRDRPPRLPRPRPRPWCYPRP	0.155
RRIRDRPPRLPRPRPRPPKNPRP	0.344
RRIRNRPPRLPRPRPRPPNHPRP	0.0878
RRIRCRPPRLPRPRPRPVDRPRP	0.0626
RRIRHRPPRLPRPRPRPSAEPRP	0.217
RRIRYRPPRLPRPRPRPDSCPRP	0.0675
RRIRFRPPRLPRPRPRPFARPRP	-0.115
RRIRMRPPRLPRPRPRPHNVPRP	0.0515
RRIRVRPPRLPRPRPRPQWWPRP	0.0756
RRIRKRPPRLPRPRPRPPVCPRP	0.336
RRIRHRPPRLPRPRPRPWMEPRP	-0.00645
RRIRQRPPRLPRPRPRPVRTPRP	0.0701
RRIRSRPPRLPRPRPRPCRWPRP	0.0467
RRIRPRPPRLPRPRPRPRDAPRP	0.635
RRIRTRPPRLPRPRPRPFGSPRP	0.0169
RRIRFRPPRLPRPRPRPSNAPRP	-0.165
RRIRPRPPRLPRPRPRPGHQPRP	0.153
RRIRLRPPRLPRPRPRPHLFPRP	-0.0266
RRIRSRPPRLPRPRPRPAPQPRP	0.461
RRIRYRPPRLPRPRPRPYAEPRP	-0.193

Sequence	shrunken log2 fold change
RRIRARPPRLPRPRPRPYSCPRP	-0.43
RRIRNRPPRLPRPRPRPPYHPRP	-0.362
RRIRRRPPRLPRPRPRPTWAPRP	0.7
RRIRRRPPRLPRPRPRPSIEPRP	-0.232
RRIRWRPPRLPRPRPRPGNHPRP	-0.163
RRIRCRPPRLPRPRPRPATNPRP	0.213
RRIRERPPRLPRPRPRPSWNPRP	-0.701
RRIRQRPPRLPRPRPRPYIPPRP	-0.619
RRIRQRPPRLPRPRPRPCGAPRP	0.133
RRIRIRPPRLPRPRPRPYATPRP	-0.334
RRIRVRPPRLPRPRPRPRLYPRP	0.13
RRIRARPPRLPRPRPRPTLVPRP	0.562
RRIRWRPPRLPRPRPRPHGHPRP	-0.0213
RRIRTRPPRLPRPRPRPGPLPRP	0.185
RRIRQRPPRLPRPRPRPLDSPRP	-0.00448
RRIRVRPPRLPRPRPRPKQLPRP	0.0267
RRIRERPPRLPRPRPRPGEIPRP	0.0895
RRIRQRPPRLPRPRPRPKYYPRP	-0.746
RRIRSRPPRLPRPRPRPHHEPRP	-0.0237
RRIRYRPPRLPRPRPRPCTCPRP	0.0744
RRIRQRPPRLPRPRPRPEPEPRP	0.813
RRIRMRPPRLPRPRPRPRGTPRP	1.36

Sequence	shrunken log2 fold change
RRIRVRPPRLPRPRPRPNWYPRP	-0.523
RRIRSRPPRLPRPRPRPWTLPRP	-0.0934
RRIRTRPPRLPRPRPRPFRNPRP	0.0337
RRIRLRPPRLPRPRPRPDFHPRP	-0.206
RRIRKRPPRLPRPRPRPMETPRP	-0.0146
RRIRARPPRLPRPRPRPRVKPRP	0.488
RRIRGRPPRLPRPRPRPLSWPRP	0.781
RRIRIRPPRLPRPRPRPAVFPRP	0.103
RRIRCRPPRLPRPRPRPYLKPRP	-1.1
RRIRGRPPRLPRPRPRPDFVPRP	0.0455
RRIRFRPPRLPRPRPRPVKMPRP	-0.0692
RRIRFRPPRLPRPRPRPQFCPRP	-0.0625
RRIRIRPPRLPRPRPRPSGIPRP	-0.469
RRIRDRPPRLPRPRPRPSDYPRP	-0.566
RRIRIRPPRLPRPRPRPRMNPRP	-0.593
RRIRPRPPRLPRPRPRPIALPRP	-0.0697
RRIRYRPPRLPRPRPRPVGMPRP	-0.083
RRIRDRPPRLPRPRPRPWAVPRP	-0.066
RRIRKRPPRLPRPRPRPKVLPRP	0.0605
RRIRKRPPRLPRPRPRPNNTPRP	-0.243
RRIRQRPPRLPRPRPRPMHQPRP	-0.195
RRIRMRPPRLPRPRPRPYTTPRP	-0.335

Sequence	shrunken log2 fold change
RRIRRRPPRLPRPRPRPLPDPRP	0.112
RRIRHRPPRLPRPRPRPKHCPRP	-0.447
RRIRQRPPRLPRPRPRPKAAPRP	-0.0496
RRIRRRPPRLPRPRPRPGDPPRP	0.593
RRIRVRPPRLPRPRPRPTWHPRP	0.384
RRIRYRPPRLPRPRPRPHHVPRP	-0.00992
RRIRPRPPRLPRPRPRPTLTPRP	1.22
RRIRVRPPRLPRPRPRPMHKPRP	-0.192
RRIRYRPPRLPRPRPRPNYAPRP	-0.223
RRIRQRPPRLPRPRPRPYFTPRP	-0.818
RRIRFRPPRLPRPRPRPHECPRP	0.0366
RRIRLRPPRLPRPRPRPHPPPRP	1
RRIRTRPPRLPRPRPRPYELPRP	-0.854
RRIRIRPPRLPRPRPRPIGGPRP	-0.0686
RRIRRRPPRLPRPRPRPFGNPRP	-0.18
RRIRKRPPRLPRPRPRPMGPPRP	0.339
RRIRKRPPRLPRPRPRPEPFPRP	0.0238
RRIRDRPPRLPRPRPRPYTTPRP	-0.556
RRIRKRPPRLPRPRPRPSWPPRP	0.321
RRIRSRPPRLPRPRPRPFEQPRP	-0.0212
RRIRIRPPRLPRPRPRPTQEPRP	0.0113
RRIRYRPPRLPRPRPRPYRLPRP	-0.173

Sequence	shrunken log2 fold change
RRIRVRPPRLPRPRPRPVYYPRP	-0.696
RRIRWRPPRLPRPRPRPWYNPRP	-0.119
RRIRDRPPRLPRPRPRPDMLPRP	0.00888
RRIRFRPPRLPRPRPRPYQEPRP	-0.0819
RRIRSRPPRLPRPRPRPSHKPRP	-0.658
RRIRIRPPRLPRPRPRPNGNPRP	-0.365
RRIRIRPPRLPRPRPRPLPKPRP	0.263
RRIRGRPPRLPRPRPRPGPMPRP	0.966
RRIRPRPPRLPRPRPRPFDVPRP	0.0778
RRIRKRPPRLPRPRPRPFIDPRP	0.0226
RRIRRRPPRLPRPRPRPRVSPRP	0.335
RRIRLRPPRLPRPRPRPDRKPRP	-0.0365
RRIRFRPPRLPRPRPRPRIDPRP	-0.0186
RRIRPRPPRLPRPRPRPQQSPRP	-0.236
RRIRKRPPRLPRPRPRPAFLPRP	0.245
RRIRPRPPRLPRPRPRPKRQPRP	0.0603
RRIRYRPPRLPRPRPRPVKPPRP	0.00519
RRIRWRPPRLPRPRPRPDMTPRP	0.216
RRIRCRPPRLPRPRPRPTSCPRP	-0.0641
RRIRYRPPRLPRPRPRPVTCPRP	-0.0508
RRIRDRPPRLPRPRPRPEPWPRP	0.32
